# According to the supplement of paper PMC9112550, “Optimization of the antimicrobial peptide Bac7 by deep mutational scanning” (BMC Biology, 2022):
# System: Escherichia coli TOP10
# Test: shrunken log2 fold change of peptide-encoding DNA abundance (4.5 h post-induction vs induction); higher = less antimicrobial activity (less host growth inhibition)
# Conditions: time post-induction: 4.5 h; library: site-saturation at positions 5, 18, 19, 20
# 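Also: peptides expressed intracellularly from a pBAD plasmid library in pooled LB shake-flask culture, induced with 0.3% L-arabinose, DNA abundance read by NGS, three biological replicates, DESeq2 with apeglm shrinkage.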
row,Sequence,shrunken log2 fold change
1,RRIRGRPPRLPRPRPRPTGIPRP,-0.0412
2,RRIRQRPPRLPRPRPRPACAPRP,0.587
3,RRIRWRPPRLPRPRPRPDACPRP,0.00464
4,RRIRKRPPRLPRPRPRPLKWPRP,0.18
5,RRIRLRPPRLPRPRPRPELYPRP,-0.0383
6,RRIRPRPPRLPRPRPRPVCDPRP,0.333
7,RRIRERPPRLPRPRPRPFFWPRP,0.138
8,RRIRQRPPRLPRPRPRPWGIPRP,0.0274
9,RRIRIRPPRLPRPRPRPIMPPRP,-0.825
10,RRIRARPPRLPRPRPRPAAPPRP,0.99
11,RRIRIRPPRLPRPRPRPAKEPRP,-0.374
12,RRIRCRPPRLPRPRPRPLVSPRP,-0.245
13,RRIRPRPPRLPRPRPRPADIPRP,0.142
14,RRIRARPPRLPRPRPRPAANPRP,0.741
15,RRIRHRPPRLPRPRPRPHFRPRP,0.00253
16,RRIRCRPPRLPRPRPRPDVIPRP,-0.405
17,RRIRKRPPRLPRPRPRPPDPPRP,0.889
18,RRIRLRPPRLPRPRPRPNMEPRP,0.116
19,RRIRRRPPRLPRPRPRPRHHPRP,0.0826
20,RRIRWRPPRLPRPRPRPRAAPRP,1.04
21,RRIRERPPRLPRPRPRPDLEPRP,-0.0701
22,RRIRDRPPRLPRPRPRPHIYPRP,-0.0848
23,RRIRDRPPRLPRPRPRPHCSPRP,0.0218
24,RRIRRRPPRLPRPRPRPHHMPRP,-0.217
25,RRIRMRPPRLPRPRPRPHECPRP,0.0178

row,Sequence,shrunken log2 fold change
1,RRIRMRPPRLPRPRPRPVWMPRP,0.169
2,RRIRERPPRLPRPRPRPPMNPRP,-0.82
3,RRIRPRPPRLPRPRPRPRICPRP,0.0562
4,RRIRCRPPRLPRPRPRPDPGPRP,0.112
5,RRIRWRPPRLPRPRPRPSYQPRP,-1.04
6,RRIRRRPPRLPRPRPRPVWPPRP,0.36
7,RRIRDRPPRLPRPRPRPHEIPRP,-0.0115
8,RRIRIRPPRLPRPRPRPFPNPRP,-0.939
9,RRIRFRPPRLPRPRPRPHEFPRP,-0.0308
10,RRIRHRPPRLPRPRPRPWWKPRP,-0.0848
11,RRIRMRPPRLPRPRPRPHSLPRP,-0.0589
12,RRIRGRPPRLPRPRPRPRKKPRP,0.774
13,RRIRLRPPRLPRPRPRPPCFPRP,0.242
14,RRIRWRPPRLPRPRPRPESLPRP,0.412
15,RRIRLRPPRLPRPRPRPKNFPRP,0.492
16,RRIRNRPPRLPRPRPRPICCPRP,-0.062
17,RRIRIRPPRLPRPRPRPASDPRP,-0.077
18,RRIRYRPPRLPRPRPRPMADPRP,-0.0453
19,RRIRRRPPRLPRPRPRPLSWPRP,0.361
20,RRIRKRPPRLPRPRPRPQVIPRP,0.108
21,RRIRRRPPRLPRPRPRPTNPPRP,0.122
22,RRIRHRPPRLPRPRPRPWNNPRP,-0.453
23,RRIRLRPPRLPRPRPRPELGPRP,0.0397
24,RRIRTRPPRLPRPRPRPRQSPRP,0.159
25,RRIRKRPPRLPRPRPRPPFYPRP,0.229

row,Sequence,shrunken log2 fold change
1,RRIRSRPPRLPRPRPRPRWQPRP,0.166
2,RRIRARPPRLPRPRPRPNWAPRP,0.27
3,RRIRHRPPRLPRPRPRPPELPRP,0.469
4,RRIRHRPPRLPRPRPRPKIKPRP,-0.601
5,RRIRCRPPRLPRPRPRPYCRPRP,-0.0628
6,RRIRERPPRLPRPRPRPHATPRP,0.238
7,RRIRVRPPRLPRPRPRPWSWPRP,0.15
8,RRIRFRPPRLPRPRPRPDDMPRP,-0.0994
9,RRIRFRPPRLPRPRPRPASAPRP,0.47
10,RRIRTRPPRLPRPRPRPGYNPRP,-0.957
11,RRIRLRPPRLPRPRPRPFAIPRP,0.0494
12,RRIRTRPPRLPRPRPRPGACPRP,-0.234
13,RRIRKRPPRLPRPRPRPYWMPRP,-0.19
14,RRIRLRPPRLPRPRPRPVADPRP,0.0131
15,RRIRCRPPRLPRPRPRPDMFPRP,-0.148
16,RRIRIRPPRLPRPRPRPMIPPRP,1.87
17,RRIRKRPPRLPRPRPRPIDSPRP,0.229
18,RRIRCRPPRLPRPRPRPDDGPRP,-0.0952
19,RRIRRRPPRLPRPRPRPRFGPRP,0.438
20,RRIRARPPRLPRPRPRPNWFPRP,0.0236
21,RRIRNRPPRLPRPRPRPTCAPRP,0.161
22,RRIRIRPPRLPRPRPRPERWPRP,1.8
23,RRIRNRPPRLPRPRPRPSNNPRP,-0.96
24,RRIRERPPRLPRPRPRPKPWPRP,0.287
25,RRIRMRPPRLPRPRPRPNNYPRP,0.0147

row,Sequence,shrunken log2 fold change
1,RRIRRRPPRLPRPRPRPRPNPRP,0.624
2,RRIRIRPPRLPRPRPRPNTAPRP,-0.0523
3,RRIRFRPPRLPRPRPRPHGAPRP,0.109
4,RRIRPRPPRLPRPRPRPDESPRP,-0.188
5,RRIRNRPPRLPRPRPRPSTRPRP,0.326
6,RRIRRRPPRLPRPRPRPGLSPRP,-0.0549
7,RRIRQRPPRLPRPRPRPAGTPRP,0.134
8,RRIRLRPPRLPRPRPRPFHEPRP,-0.101
9,RRIRRRPPRLPRPRPRPVLRPRP,1.11
10,RRIRDRPPRLPRPRPRPNQYPRP,-0.428
11,RRIRCRPPRLPRPRPRPCQRPRP,0.0663
12,RRIRVRPPRLPRPRPRPEKDPRP,0.188
13,RRIRKRPPRLPRPRPRPTLGPRP,1.72
14,RRIRERPPRLPRPRPRPHARPRP,0.198
15,RRIRPRPPRLPRPRPRPDCYPRP,-0.0771
16,RRIRCRPPRLPRPRPRPATKPRP,0.0383
17,RRIRFRPPRLPRPRPRPCNWPRP,0.128
18,RRIRCRPPRLPRPRPRPDGTPRP,0.105
19,RRIRCRPPRLPRPRPRPARLPRP,0.395
20,RRIRCRPPRLPRPRPRPVNFPRP,-0.484
21,RRIRPRPPRLPRPRPRPPCMPRP,-0.165
22,RRIRYRPPRLPRPRPRPMVSPRP,-0.00277
23,RRIRRRPPRLPRPRPRPADFPRP,0.115
24,RRIRQRPPRLPRPRPRPNQGPRP,0.084
25,RRIRSRPPRLPRPRPRPYQQPRP,-2.39

row,Sequence,shrunken log2 fold change
1,RRIRARPPRLPRPRPRPFWIPRP,-0.0619
2,RRIRCRPPRLPRPRPRPVMPPRP,-0.139
3,RRIRPRPPRLPRPRPRPEYKPRP,-0.293
4,RRIRWRPPRLPRPRPRPWGQPRP,-0.0525
5,RRIRSRPPRLPRPRPRPWNFPRP,-0.0212
6,RRIRWRPPRLPRPRPRPQKIPRP,-0.178
7,RRIRKRPPRLPRPRPRPAELPRP,0.552
8,RRIRRRPPRLPRPRPRPFCQPRP,-0.252
9,RRIRPRPPRLPRPRPRPKWIPRP,-0.465
10,RRIRLRPPRLPRPRPRPTMCPRP,-0.0109
11,RRIRQRPPRLPRPRPRPYLTPRP,-0.209
12,RRIRSRPPRLPRPRPRPFKTPRP,-0.0323
13,RRIRSRPPRLPRPRPRPFPLPRP,-0.886
14,RRIRCRPPRLPRPRPRPDAGPRP,0.122
15,RRIRGRPPRLPRPRPRPQQSPRP,0.465
16,RRIRQRPPRLPRPRPRPSYHPRP,-0.178
17,RRIRYRPPRLPRPRPRPSAIPRP,-0.939
18,RRIRLRPPRLPRPRPRPQHYPRP,-0.761
19,RRIRNRPPRLPRPRPRPIDHPRP,-0.169
20,RRIRWRPPRLPRPRPRPWCVPRP,-0.032
21,RRIRRRPPRLPRPRPRPDCIPRP,0.0761
22,RRIRQRPPRLPRPRPRPGAIPRP,0.0781
23,RRIRSRPPRLPRPRPRPGNVPRP,-0.0126
24,RRIRKRPPRLPRPRPRPKYQPRP,0.0989
25,RRIRDRPPRLPRPRPRPGPYPRP,-0.079

row,Sequence,shrunken log2 fold change
1,RRIRPRPPRLPRPRPRPCKMPRP,-0.223
2,RRIRHRPPRLPRPRPRPCCYPRP,-0.496
3,RRIRDRPPRLPRPRPRPENNPRP,0.264
4,RRIRSRPPRLPRPRPRPEKNPRP,0.312
5,RRIRERPPRLPRPRPRPQLSPRP,0.1
6,RRIRPRPPRLPRPRPRPMHSPRP,0.355
7,RRIRCRPPRLPRPRPRPPAHPRP,2.07
8,RRIRSRPPRLPRPRPRPFMQPRP,-0.638
9,RRIRTRPPRLPRPRPRPRVVPRP,1.87
10,RRIRWRPPRLPRPRPRPCETPRP,-0.0636
11,RRIRNRPPRLPRPRPRPDIDPRP,-0.0391
12,RRIRDRPPRLPRPRPRPQNLPRP,0.0232
13,RRIRQRPPRLPRPRPRPRYHPRP,-0.784
14,RRIRCRPPRLPRPRPRPLMHPRP,-0.264
15,RRIRFRPPRLPRPRPRPRCAPRP,0.178
16,RRIRWRPPRLPRPRPRPVVHPRP,-0.102
17,RRIRRRPPRLPRPRPRPYHIPRP,-0.365
18,RRIRNRPPRLPRPRPRPMCFPRP,-0.114
19,RRIRMRPPRLPRPRPRPYNDPRP,0.0185
20,RRIRVRPPRLPRPRPRPQPAPRP,0.0494
21,RRIRHRPPRLPRPRPRPTPKPRP,-0.0377
22,RRIRTRPPRLPRPRPRPVTTPRP,-0.116
23,RRIRMRPPRLPRPRPRPADAPRP,1.21
24,RRIRQRPPRLPRPRPRPMDEPRP,0.0268
25,RRIRLRPPRLPRPRPRPWKYPRP,-0.0875
